From patent US20240002517A1

What was measured:
[1] = biological target: G-CSF-R (Homo sapiens (Human)) (UniProt Q99062); test: potency ELISA, plate coated with G-CSFR, HRP detection, parallel line analysis; 120 mg/mL formulation, 0 months at 5 C
[2] = biological target: G-CSF-R (Homo sapiens (Human)) (UniProt Q99062); test: potency ELISA, plate coated with G-CSFR, HRP detection, parallel line analysis; 120 mg/mL formulation, 6 months at 5 C
[3] = biological target: G-CSF-R (Homo sapiens (Human)) (UniProt Q99062); test: potency ELISA, plate coated with G-CSFR, HRP detection, parallel line analysis; 120 mg/mL formulation, 3 months at 25 C
[4] = biological target: G-CSF-R (Homo sapiens (Human)) (UniProt Q99062); test: potency ELISA, plate coated with G-CSFR, HRP detection, parallel line analysis; 120 mg/mL formulation, 12 months at 5 C
[5] = biological target: G-CSF-R (Homo sapiens (Human)) (UniProt Q99062); test: potency ELISA, plate coated with G-CSFR, HRP detection, parallel line analysis; 120 mg/mL formulation, 18 months at 25 C
[6] = biological target: G-CSF-R (Homo sapiens (Human)) (UniProt Q99062); test: potency ELISA, plate coated with G-CSFR, HRP detection, parallel line analysis; 120 mg/mL formulation, 3 months at 5 C
[7] = biological target: G-CSF-R (Homo sapiens (Human)) (UniProt Q99062); test: potency ELISA, plate coated with G-CSFR, HRP detection, parallel line analysis; 120 mg/mL formulation, 9 months at 5 C
[8] = biological target: G-CSF-R (Homo sapiens (Human)) (UniProt Q99062); test: potency ELISA, plate coated with G-CSFR, HRP detection, parallel line analysis; 120 mg/mL formulation, 6 months at 25 C
[9] = biological target: G-CSF-R (Homo sapiens (Human)) (UniProt Q99062); test: potency ELISA, plate coated with G-CSFR, HRP detection, parallel line analysis; 120 mg/mL formulation, 12 months at 25 C
[10] = biological target: G-CSF-R (Homo sapiens (Human)) (UniProt Q99062); test: potency ELISA, plate coated with G-CSFR, HRP detection, parallel line analysis; 120 mg/mL formulation, 24 months at 5 C
[11] = biological target: G-CSF-R (Homo sapiens (Human)) (UniProt Q99062); test: potency ELISA, plate coated with G-CSFR, HRP detection, parallel line analysis; 120 mg/mL formulation, 18 months at 5 C
[12] = biological target: G-CSF-R (Homo sapiens (Human)) (UniProt Q99062); test: potency ELISA, plate coated with G-CSFR, HRP detection, parallel line analysis; 120 mg/mL formulation, 9 months at 25 C
[13] = biological target: G-CSF-R (Homo sapiens (Human)) (UniProt Q99062); test: potency ELISA, plate coated with G-CSFR, HRP detection, parallel line analysis; 120 mg/mL formulation, 0 months at 25 C

Which results are given for CSL324 (antibody)?
potency relative to reference standard [1]: 108%; potency relative to reference standard [2]: 108%; potency relative to reference standard [3]: 109%; potency relative to reference standard [4]: 107%; potency relative to reference standard [5]: 96%; potency relative to reference standard [6]: 116%; potency relative to reference standard [7]: 108%; potency relative to reference standard [8]: 109%; potency relative to reference standard [9]: 96%; potency relative to reference standard [10]: 103%; potency relative to reference standard [11]: 100%; potency relative to reference standard [12]: 99%; potency relative to reference standard [13]: 108%
